# Publication PMC4157451 (Acta Crystallographica Section D: Biological Crystallography, 2014)
# B1: PvuRts1I Y210F mutant (enzyme, UniProt Q52612 1-293, looked up)
# chain: MSKTDYILRALSKISHKRWEHYIINRVVHTLDDPDIEFVCQQCIRKEGHLGKIYLADLLFPQLNLYLEIDEAHHDSNDARKADAVRRLDIVEATGFQEERIPASNITLSEVNKLVDEFVRLVKDKKEELENQGLFFRWDYDERYSAKKHINTGYMAVGPNSVFRYHRDALQCFGYRREGHHQSGGWALPAEVAQSIGLTGRVMVWFPRLFEAGEWKNALSADGNKITEQSLNATRNYQETWDYRIVMAHSRDELNRTLYRFLGVFAIDVDKSSDEVKVFSRVYSRVNVYRSQN
# notes: PvuRts1I with a point mutation; also called Y210F variant; source: E. coli Rosetta2 (DE3), purified under identical conditions to wild-type PvuRts1I
# B2: PvuRts1I A212N mutant (enzyme, UniProt Q52612 1-293, looked up)
# chain: MSKTDYILRALSKISHKRWEHYIINRVVHTLDDPDIEFVCQQCIRKEGHLGKIYLADLLFPQLNLYLEIDEAHHDSNDARKADAVRRLDIVEATGFQEERIPASNITLSEVNKLVDEFVRLVKDKKEELENQGLFFRWDYDERYSAKKHINTGYMAVGPNSVFRYHRDALQCFGYRREGHHQSGGWALPAEVAQSIGLTGRVMVWFPRLYENGEWKNALSADGNKITEQSLNATRNYQETWDYRIVMAHSRDELNRTLYRFLGVFAIDVDKSSDEVKVFSRVYSRVNVYRSQN
# notes: PvuRts1I with a point mutation; source: E. coli Rosetta2 (DE3), purified under identical conditions to wild-type PvuRts1I
# B3: PvuRts1I W215A mutant (enzyme, UniProt Q52612 1-293, looked up)
# chain: MSKTDYILRALSKISHKRWEHYIINRVVHTLDDPDIEFVCQQCIRKEGHLGKIYLADLLFPQLNLYLEIDEAHHDSNDARKADAVRRLDIVEATGFQEERIPASNITLSEVNKLVDEFVRLVKDKKEELENQGLFFRWDYDERYSAKKHINTGYMAVGPNSVFRYHRDALQCFGYRREGHHQSGGWALPAEVAQSIGLTGRVMVWFPRLYEAGEAKNALSADGNKITEQSLNATRNYQETWDYRIVMAHSRDELNRTLYRFLGVFAIDVDKSSDEVKVFSRVYSRVNVYRSQN
# notes: as for B2
# B4: PvuRts1I N217A mutant (enzyme, UniProt Q52612 1-293, looked up)
# chain: MSKTDYILRALSKISHKRWEHYIINRVVHTLDDPDIEFVCQQCIRKEGHLGKIYLADLLFPQLNLYLEIDEAHHDSNDARKADAVRRLDIVEATGFQEERIPASNITLSEVNKLVDEFVRLVKDKKEELENQGLFFRWDYDERYSAKKHINTGYMAVGPNSVFRYHRDALQCFGYRREGHHQSGGWALPAEVAQSIGLTGRVMVWFPRLYEAGEWKAALSADGNKITEQSLNATRNYQETWDYRIVMAHSRDELNRTLYRFLGVFAIDVDKSSDEVKVFSRVYSRVNVYRSQN
# notes: as for B2
# B5: PvuRts1I N217D mutant (enzyme, UniProt Q52612 1-293, looked up)
# chain: MSKTDYILRALSKISHKRWEHYIINRVVHTLDDPDIEFVCQQCIRKEGHLGKIYLADLLFPQLNLYLEIDEAHHDSNDARKADAVRRLDIVEATGFQEERIPASNITLSEVNKLVDEFVRLVKDKKEELENQGLFFRWDYDERYSAKKHINTGYMAVGPNSVFRYHRDALQCFGYRREGHHQSGGWALPAEVAQSIGLTGRVMVWFPRLYEAGEWKDALSADGNKITEQSLNATRNYQETWDYRIVMAHSRDELNRTLYRFLGVFAIDVDKSSDEVKVFSRVYSRVNVYRSQN
# notes: as for B2
# B6: PvuRts1I N217K mutant (enzyme, UniProt Q52612 1-293, looked up)
# chain: MSKTDYILRALSKISHKRWEHYIINRVVHTLDDPDIEFVCQQCIRKEGHLGKIYLADLLFPQLNLYLEIDEAHHDSNDARKADAVRRLDIVEATGFQEERIPASNITLSEVNKLVDEFVRLVKDKKEELENQGLFFRWDYDERYSAKKHINTGYMAVGPNSVFRYHRDALQCFGYRREGHHQSGGWALPAEVAQSIGLTGRVMVWFPRLYEAGEWKKALSADGNKITEQSLNATRNYQETWDYRIVMAHSRDELNRTLYRFLGVFAIDVDKSSDEVKVFSRVYSRVNVYRSQN
# notes: as for B2
# B7: PvuRts1I E228K mutant (enzyme, UniProt Q52612 1-293, looked up)
# chain: MSKTDYILRALSKISHKRWEHYIINRVVHTLDDPDIEFVCQQCIRKEGHLGKIYLADLLFPQLNLYLEIDEAHHDSNDARKADAVRRLDIVEATGFQEERIPASNITLSEVNKLVDEFVRLVKDKKEELENQGLFFRWDYDERYSAKKHINTGYMAVGPNSVFRYHRDALQCFGYRREGHHQSGGWALPAEVAQSIGLTGRVMVWFPRLYEAGEWKNALSADGNKITKQSLNATRNYQETWDYRIVMAHSRDELNRTLYRFLGVFAIDVDKSSDEVKVFSRVYSRVNVYRSQN
# notes: as for B2
# Molecular target: the molecule itself
# Assay: not stated; assembly of the purified point mutants in solution (Supplementary Fig. S3)
row,Protein,stoichiometry N
1,B1,2
2,B2,2
3,B3,2
4,B4,2
5,B5,2
6,B6,2
7,B7,2
